According to publication PMC7674511 (2020):

B1: BAG6 LIR1 peptide (residues 124-143) [modified: FITC label (position not stated), told for the anisotropy assay; FITC label (position not stated), told for the anisotropy assay] [not stated] / LC3B-I [not stated] (parent complex)
chain 1: VHDRNANSYVMVGTFNLPSD
chain 2: not shown
B2: FLAG-BAG6(1-266aa) [not stated] / GFP-LC3B [not stated] (parent complex)
chain 1: MEPNDSTSTAVEEPDSLEVLVKTLDSQTRTFIVGAQMNVKEFKEHIAASVSIPSEKQRLIYQGRVLQDDKKLQEYNVGGKVIHLVERAPPQTHLPSGASSGTGSASATHGGGSPPGTRGPGASVHDRNANSYVMVGTFNLPSDGSAVDVHINMEQAPIQSEPRVRLVMAQHMIRDIQTLLSRMECRGGPQPQHSQPPPQPPAVTPEPVALSSQTSEPVESEAPPREPMEAEEVEERAPAQNPELTPGPAPAGPTPAPETNAPNHPS
chain 2: not shown

Variants of: B1
Assay: fluorescence anisotropy; FITC-labeled peptide 1 μM; read at the highest LC3B-I concentration plotted (about 48 μM); read off a plot

Row | response | Variant
1 | ~0.001 | chain 1 Y9A, chain 1 V12A

Variants of: B2
Assay: co-immunoprecipitation (FLAG pulldown with anti-FLAG beads, immunoblot); HEK293FT cells transfected with GFP-LC3B and FLAG-BAG6(1-266aa) constructs

Row | ratio to parent | Variant
2 | 0.79 | chain 1 Y132A, chain 1 V135A
3 | 0.23 | chain 1 Y132A, chain 1 V133A, chain 1 M134A, chain 1 V135A
